What was measured:
5-Helix-His6x [1] = biological target: T1, 5-Helix-His6x (HIV-1); assay: ELISA on E. coli lysate, His6-tagged 5-helix captured on Ni-NTA plates, anti-FLAG detection
T1 construct: also called His6-tagged 5-helix; 5-Helix bundle

5-Helix-His6x [2] = biological target: T1, 5-Helix-His6x; assay: circular dichroism of a 1:1 mixture, wavelength scan and thermal melt
5-Helix-His6x [3] = biological target: T1, 5-Helix-His6x; assay: Ni-NTA co-purification from E. coli lysate, densitometry of the protein bands
[4] = biological target: T2, AviTag-5-helix-His6x, biotinylated (HIV-1, biotin conjugated to the AviTag with BirA); assay: ELISA, biotinylated 5-helix on streptavidin plates, 50 nM GLUE-Cpep pre-incubated in human serum, anti-FLAG detection
T2 construct: also called Biotinylated 5-helix; AviTagged 5-helix; not shown: N-terminal AviTag and any linker

Binder	binding result (5-Helix-His6x [1])	further results
FLAG-GLUE (other, Co-expressed with 5-Helix-His6x in E. coli; lysate ELISA; also called wtGLUE; wt-GLUE) MDYKDDDDKGGSEYWHYVETTSSGQPLLREGEKDIFIDQSVGLYHGKSKILQRQRGRIFLTSQRIIYIDDAKPTQNSLGLELDDLAYVNYSSGFLTRSPALILFFKDPSSSTEFVQLSFRKSDGVLFSQATERALENILT	no binding	
His6x-GLUE-Cpep (designed binder, Purified construct used in CD; also called helix-grafted GLUE) MGSSHHHHHHSQDPGLNDIFEAQKIEWHEGGSGGSGGTEYWHYVETTSSGQPLLREGEKDIAIDQSVGLYHGKSKILQRQRGRIFLTSQRIIYIDDAKPTQNSLGLELDDLAYVNYSSGFLTRSPALILFFKDPSSSTEFVQLSFRKSDGVWFSWATEIALYTILIHSLIEESQNQQEKNEQELL		binding result (5-Helix-His6x [2]): binds
GLUE-Cpep (untagged) (designed binder, Co-expressed with 5-Helix-His6x in E. coli; also called untagged GLUE-Cpep) MEYWHYVETTSSGQPLLREGEKDIAIDQSVGLYHGKSKILQRQRGRIFLTSQRIIYIDDAKPTQNSLGLELDDLAYVNYSSGFLTRSPALILFFKDPSSSTEFVQLSFRKSDGVWFSWATEIALYTILIHSLIEESQNQQEKNEQELL		ratio of proteins in the complex (stoichiometry) (5-Helix-His6x [3]): 1 ratio (1:1)
FLAG-GLUE-Cpep (pET-28a construct, His6x-FLAG-GLUE-Cpep) (designed binder, Purified, pre-incubated with human serum, then tested in ELISA on biotinylated 5-helix) MGSSHHHHHHSSGLVPRGSHMDYKDDDDKGGSEYWHYVETTSSGQPLLREGEKDIAIDQSVGLYHGKSKILQRQRGRIFLTSQRIIYIDDAKPTQNSLGLELDDLAYVNYSSGFLTRSPALILFFKDPSSSTEFVQLSFRKSDGVWFSWATEIALYTILIHSLIEESQNQQEKNEQELL		binding result [4]: binds
MDYKDDDDKGGSWMEWDREINNYTSLIHSLIEESQNQQEKNEQELL (Co-expressed with 5-Helix-His6x in E. coli; also called C-peptide; native C-peptide) [FLAG-CHR]	binds	
FLAG-GLUE-Cpep (designed binder, Co-expressed with 5-Helix-His6x in E. coli; lysate ELISA; also called grafted GLUE; helix-grafted GLUE) MDYKDDDDKGGSEYWHYVETTSSGQPLLREGEKDIAIDQSVGLYHGKSKILQRQRGRIFLTSQRIIYIDDAKPTQNSLGLELDDLAYVNYSSGFLTRSPALILFFKDPSSSTEFVQLSFRKSDGVWFSWATEIALYTILIHSLIEESQNQQEKNEQELL	binds	
